# Data: US20170165365A1 (SYMPHOGEN A S, published 2017)
# Tests used:
# murine HER4 antigen = molecular target: T1, murine HER4 antigen (mouse, UniProt Q61527 26-652, limits assumed); experiment: ELISA on coated antigen
# T1 construct: In-house antigen coated for ELISA; also called mouse HER4
# T1 sequence (looked up): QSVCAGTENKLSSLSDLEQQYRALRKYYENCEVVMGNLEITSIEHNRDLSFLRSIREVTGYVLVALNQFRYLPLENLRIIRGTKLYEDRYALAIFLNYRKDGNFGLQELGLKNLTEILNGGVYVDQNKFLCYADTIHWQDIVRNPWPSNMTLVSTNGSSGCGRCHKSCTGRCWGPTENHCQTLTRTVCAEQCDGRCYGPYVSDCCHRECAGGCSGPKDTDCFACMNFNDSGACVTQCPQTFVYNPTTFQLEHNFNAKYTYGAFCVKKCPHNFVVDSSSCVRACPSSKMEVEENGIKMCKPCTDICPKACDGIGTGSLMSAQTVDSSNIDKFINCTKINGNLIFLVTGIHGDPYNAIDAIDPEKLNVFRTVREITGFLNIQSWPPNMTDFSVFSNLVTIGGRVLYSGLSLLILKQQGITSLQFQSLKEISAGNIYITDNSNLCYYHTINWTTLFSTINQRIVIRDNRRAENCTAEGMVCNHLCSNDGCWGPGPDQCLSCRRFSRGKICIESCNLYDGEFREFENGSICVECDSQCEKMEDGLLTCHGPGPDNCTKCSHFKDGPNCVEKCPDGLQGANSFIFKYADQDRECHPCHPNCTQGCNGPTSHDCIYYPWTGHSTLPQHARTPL
# Procedure: (§1) Antibody-antigen binding was measured by ELISA with coated antigens. Human antigens were obtained from Sino Biologicals. All other antigens were produced in-house by transient expression in CHO or HEK293 cells. Chimeric and humanized antibodies, as well as an isotype control antibody, were incubated with the coated antigens at different concentrations. After wash, bound antibodies were detected by HRP-(horse radish peroxidase)-conjugated secondary antibodies.
# [1] = molecular target: T2, human HER3 antigen (Sino Biologicals) (human, UniProt P21860 20-643); experiment: ELISA on coated antigen
# T2 construct: Bought soluble antigen; also called human antigen
# Procedure: as §1
# mouse HER2 antigen = molecular target: T3, mouse HER2 antigen (mouse, UniProt P70424 23-653, limits assumed); experiment: ELISA on coated antigen
# T3 construct: In-house antigen coated for ELISA; also called mouse antigen; murine HER2
# T3 sequence (P70424 23-653 limits assumed): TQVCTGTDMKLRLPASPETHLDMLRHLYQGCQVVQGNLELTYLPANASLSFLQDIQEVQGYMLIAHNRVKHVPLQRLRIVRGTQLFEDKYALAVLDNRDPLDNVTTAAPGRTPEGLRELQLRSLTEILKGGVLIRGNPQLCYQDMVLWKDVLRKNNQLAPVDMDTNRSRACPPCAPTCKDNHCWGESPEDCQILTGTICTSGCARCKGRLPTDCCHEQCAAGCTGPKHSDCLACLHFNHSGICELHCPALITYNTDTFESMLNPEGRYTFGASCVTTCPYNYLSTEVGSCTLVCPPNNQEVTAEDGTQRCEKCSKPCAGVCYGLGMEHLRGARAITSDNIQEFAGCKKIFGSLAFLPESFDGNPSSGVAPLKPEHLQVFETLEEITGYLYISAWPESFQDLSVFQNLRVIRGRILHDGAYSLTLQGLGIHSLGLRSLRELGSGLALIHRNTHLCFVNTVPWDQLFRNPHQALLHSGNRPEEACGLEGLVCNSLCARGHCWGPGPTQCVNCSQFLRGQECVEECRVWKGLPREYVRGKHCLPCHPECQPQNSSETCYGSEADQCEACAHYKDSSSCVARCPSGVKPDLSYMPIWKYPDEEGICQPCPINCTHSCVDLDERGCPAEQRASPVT
# Procedure: as §1
# mouse HER3 antigen = molecular target: T4, mouse HER3 antigen (mouse, UniProt Q61526 20-641, limits assumed); experiment: ELISA on coated antigen
# T4 construct: In-house antigen coated for ELISA; also called mouse antigen; murine HER3
# T4 sequence (Q61526 20-641 limits assumed): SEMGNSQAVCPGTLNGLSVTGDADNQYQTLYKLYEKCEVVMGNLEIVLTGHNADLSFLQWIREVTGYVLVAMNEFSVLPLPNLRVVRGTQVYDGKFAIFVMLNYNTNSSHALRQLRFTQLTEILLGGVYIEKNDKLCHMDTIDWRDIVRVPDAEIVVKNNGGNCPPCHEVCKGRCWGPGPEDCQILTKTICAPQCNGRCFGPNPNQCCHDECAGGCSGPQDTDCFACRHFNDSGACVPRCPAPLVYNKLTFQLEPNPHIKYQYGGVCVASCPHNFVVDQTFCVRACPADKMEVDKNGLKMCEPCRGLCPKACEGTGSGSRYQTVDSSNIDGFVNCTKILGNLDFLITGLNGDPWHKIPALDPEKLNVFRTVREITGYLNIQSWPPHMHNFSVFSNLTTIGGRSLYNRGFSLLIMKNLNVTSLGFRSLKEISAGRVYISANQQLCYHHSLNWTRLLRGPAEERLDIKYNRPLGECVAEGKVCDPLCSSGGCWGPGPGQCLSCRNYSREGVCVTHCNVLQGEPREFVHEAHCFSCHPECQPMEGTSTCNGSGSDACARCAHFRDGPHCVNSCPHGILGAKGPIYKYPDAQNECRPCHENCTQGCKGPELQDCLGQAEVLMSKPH
# Procedure: as §1
# human HER4 antigen = molecular target: T5, human HER4 antigen (human, UniProt Q15303 26-649, limits assumed); experiment: ELISA on coated antigen
# T5 construct: Antigen coated for ELISA
# T5 sequence (looked up): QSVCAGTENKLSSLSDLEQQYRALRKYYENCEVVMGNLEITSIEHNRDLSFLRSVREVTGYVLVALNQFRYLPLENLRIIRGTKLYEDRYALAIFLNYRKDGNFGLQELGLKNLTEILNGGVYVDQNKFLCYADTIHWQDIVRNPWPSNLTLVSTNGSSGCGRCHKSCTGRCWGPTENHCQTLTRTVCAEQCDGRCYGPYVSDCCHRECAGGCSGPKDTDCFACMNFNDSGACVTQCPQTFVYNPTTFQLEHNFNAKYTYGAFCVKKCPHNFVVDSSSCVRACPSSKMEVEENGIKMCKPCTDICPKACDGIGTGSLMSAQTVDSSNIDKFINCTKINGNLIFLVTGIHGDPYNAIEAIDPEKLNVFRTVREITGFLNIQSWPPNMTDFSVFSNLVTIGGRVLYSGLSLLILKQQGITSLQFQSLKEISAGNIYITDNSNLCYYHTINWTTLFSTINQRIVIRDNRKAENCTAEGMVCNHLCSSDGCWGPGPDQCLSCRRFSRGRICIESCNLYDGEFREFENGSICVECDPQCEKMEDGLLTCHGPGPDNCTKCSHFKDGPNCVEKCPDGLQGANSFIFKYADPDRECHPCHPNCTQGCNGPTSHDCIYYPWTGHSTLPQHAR
# Procedure: as §1
# cynomolgus HER3 antigen = molecular target: T6, cynomolgus HER3 antigen (cynomolgus monkey, UniProt G7PIG5 20-643); experiment: ELISA on coated antigen
# T6 construct: In-house antigen; also called cynomolgus antigen
# T6 sequence (G7PIG5 entry or part of it): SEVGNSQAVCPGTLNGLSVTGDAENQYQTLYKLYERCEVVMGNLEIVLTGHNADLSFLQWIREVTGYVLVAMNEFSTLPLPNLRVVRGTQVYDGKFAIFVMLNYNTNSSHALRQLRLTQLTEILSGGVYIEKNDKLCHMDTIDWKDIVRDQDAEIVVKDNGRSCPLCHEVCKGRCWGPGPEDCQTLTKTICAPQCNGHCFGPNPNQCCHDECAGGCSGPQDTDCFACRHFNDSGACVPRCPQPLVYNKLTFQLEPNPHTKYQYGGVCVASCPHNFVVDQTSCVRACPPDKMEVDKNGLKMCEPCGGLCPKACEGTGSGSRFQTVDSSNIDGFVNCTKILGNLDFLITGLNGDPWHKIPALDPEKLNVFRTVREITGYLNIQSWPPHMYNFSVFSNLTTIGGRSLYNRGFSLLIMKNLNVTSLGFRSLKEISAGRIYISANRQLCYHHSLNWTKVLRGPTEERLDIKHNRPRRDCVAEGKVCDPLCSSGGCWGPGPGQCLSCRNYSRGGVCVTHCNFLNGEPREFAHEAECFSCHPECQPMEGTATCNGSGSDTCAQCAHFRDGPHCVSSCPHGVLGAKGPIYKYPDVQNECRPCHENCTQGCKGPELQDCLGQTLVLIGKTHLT
# Procedure: as §1
# mouse EGFR antigen = molecular target: T7, mouse EGFR antigen (mouse, UniProt Q01279 25-647, limits assumed); experiment: ELISA on coated antigen
# T7 construct: In-house antigen coated for ELISA; also called mouse antigen; murine EGFR
# Procedure: as §1
# cynomolgus EGFR antigen = molecular target: T8, cynomolgus EGFR antigen (cynomolgus monkey, UniProt A0A2K5WK39 25-645); experiment: ELISA on coated antigen
# T8 construct: In-house antigen; also called cynomolgus antigen
# Procedure: as §1
# [2] = molecular target: T9, human EGFR antigen (Sino Biologicals) (human, UniProt P00533 25-645); experiment: ELISA on coated antigen
# T9 construct: Bought soluble antigen; also called human antigen
# Procedure: as §1
# [3] = molecular target: cynomolgus HER2 antigen (cynomolgus monkey); experiment: SPR (ProteOn XPR36), IgG captured by anti-human Fc, soluble monovalent antigen, 1:1 fit
binder,measurement,setting,value
"humanized anti-HER2 antibody 11249 (antibody, V domains shown) VH: QVQLVQSGAEVKKPGASVKVSCKASGYTFTSHWMHWVRQAPGQGLEWMGNINPSSGGTNYNEKFKSRVTMTVDTSTSTVYMELSSLRSEDTAVYYCARAYYDFSWFVYWGQGTLVTVSS VL: DIQMTQSPSSLSASVGDRVTITCRSSQDISNYLNWYQQKPGKAPKLLMYISRLHSGVPSRFSGSGSGTDYTFTISSLQPEDIATYYCQQGNTLPLTFGGGTKVEIK",binding result,murine HER4 antigen,no binding (tested: 40 nM antibody (negative: OD<0.1))
same,binding result,[1],no binding (tested: 40 nM antibody (negative: OD<0.1))
same,binding result,mouse HER2 antigen,no binding (tested: 40 nM antibody (negative: OD<0.1))
same,binding result,mouse HER3 antigen,no binding (tested: 40 nM antibody (negative: OD<0.1))
same,binding result,human HER4 antigen,no binding (tested: 40 nM antibody (negative: OD<0.1))
same,binding result,cynomolgus HER3 antigen,no binding (tested: 40 nM antibody (negative: OD<0.1))
same,binding result,mouse EGFR antigen,no binding (tested: 40 nM antibody (negative: OD<0.1))
same,binding result,cynomolgus EGFR antigen,no binding (tested: 40 nM antibody (negative: OD<0.1))
same,binding result,[2],no binding (tested: 40 nM antibody (negative: OD<0.1))
same,Kd,[3],2.5 nM
same,koff,[3],0.00038 s⁻¹
same,kon,[3],150000 M⁻¹ s⁻¹
